Numbering of substitutions follows the chain as printed. In names and notes the source's numbering stands.
Target: EDB+FN (fibronectin containing the extra-domain B) on WI38-VA13 cells (human, UniProt P02751 32-2477)
Test: cell-based or functional assay

Sequence of EDB+FN (fibronectin containing the extra-domain B) on WI38-VA13 cells (P02751 32-2477 limits assumed, form in doubt): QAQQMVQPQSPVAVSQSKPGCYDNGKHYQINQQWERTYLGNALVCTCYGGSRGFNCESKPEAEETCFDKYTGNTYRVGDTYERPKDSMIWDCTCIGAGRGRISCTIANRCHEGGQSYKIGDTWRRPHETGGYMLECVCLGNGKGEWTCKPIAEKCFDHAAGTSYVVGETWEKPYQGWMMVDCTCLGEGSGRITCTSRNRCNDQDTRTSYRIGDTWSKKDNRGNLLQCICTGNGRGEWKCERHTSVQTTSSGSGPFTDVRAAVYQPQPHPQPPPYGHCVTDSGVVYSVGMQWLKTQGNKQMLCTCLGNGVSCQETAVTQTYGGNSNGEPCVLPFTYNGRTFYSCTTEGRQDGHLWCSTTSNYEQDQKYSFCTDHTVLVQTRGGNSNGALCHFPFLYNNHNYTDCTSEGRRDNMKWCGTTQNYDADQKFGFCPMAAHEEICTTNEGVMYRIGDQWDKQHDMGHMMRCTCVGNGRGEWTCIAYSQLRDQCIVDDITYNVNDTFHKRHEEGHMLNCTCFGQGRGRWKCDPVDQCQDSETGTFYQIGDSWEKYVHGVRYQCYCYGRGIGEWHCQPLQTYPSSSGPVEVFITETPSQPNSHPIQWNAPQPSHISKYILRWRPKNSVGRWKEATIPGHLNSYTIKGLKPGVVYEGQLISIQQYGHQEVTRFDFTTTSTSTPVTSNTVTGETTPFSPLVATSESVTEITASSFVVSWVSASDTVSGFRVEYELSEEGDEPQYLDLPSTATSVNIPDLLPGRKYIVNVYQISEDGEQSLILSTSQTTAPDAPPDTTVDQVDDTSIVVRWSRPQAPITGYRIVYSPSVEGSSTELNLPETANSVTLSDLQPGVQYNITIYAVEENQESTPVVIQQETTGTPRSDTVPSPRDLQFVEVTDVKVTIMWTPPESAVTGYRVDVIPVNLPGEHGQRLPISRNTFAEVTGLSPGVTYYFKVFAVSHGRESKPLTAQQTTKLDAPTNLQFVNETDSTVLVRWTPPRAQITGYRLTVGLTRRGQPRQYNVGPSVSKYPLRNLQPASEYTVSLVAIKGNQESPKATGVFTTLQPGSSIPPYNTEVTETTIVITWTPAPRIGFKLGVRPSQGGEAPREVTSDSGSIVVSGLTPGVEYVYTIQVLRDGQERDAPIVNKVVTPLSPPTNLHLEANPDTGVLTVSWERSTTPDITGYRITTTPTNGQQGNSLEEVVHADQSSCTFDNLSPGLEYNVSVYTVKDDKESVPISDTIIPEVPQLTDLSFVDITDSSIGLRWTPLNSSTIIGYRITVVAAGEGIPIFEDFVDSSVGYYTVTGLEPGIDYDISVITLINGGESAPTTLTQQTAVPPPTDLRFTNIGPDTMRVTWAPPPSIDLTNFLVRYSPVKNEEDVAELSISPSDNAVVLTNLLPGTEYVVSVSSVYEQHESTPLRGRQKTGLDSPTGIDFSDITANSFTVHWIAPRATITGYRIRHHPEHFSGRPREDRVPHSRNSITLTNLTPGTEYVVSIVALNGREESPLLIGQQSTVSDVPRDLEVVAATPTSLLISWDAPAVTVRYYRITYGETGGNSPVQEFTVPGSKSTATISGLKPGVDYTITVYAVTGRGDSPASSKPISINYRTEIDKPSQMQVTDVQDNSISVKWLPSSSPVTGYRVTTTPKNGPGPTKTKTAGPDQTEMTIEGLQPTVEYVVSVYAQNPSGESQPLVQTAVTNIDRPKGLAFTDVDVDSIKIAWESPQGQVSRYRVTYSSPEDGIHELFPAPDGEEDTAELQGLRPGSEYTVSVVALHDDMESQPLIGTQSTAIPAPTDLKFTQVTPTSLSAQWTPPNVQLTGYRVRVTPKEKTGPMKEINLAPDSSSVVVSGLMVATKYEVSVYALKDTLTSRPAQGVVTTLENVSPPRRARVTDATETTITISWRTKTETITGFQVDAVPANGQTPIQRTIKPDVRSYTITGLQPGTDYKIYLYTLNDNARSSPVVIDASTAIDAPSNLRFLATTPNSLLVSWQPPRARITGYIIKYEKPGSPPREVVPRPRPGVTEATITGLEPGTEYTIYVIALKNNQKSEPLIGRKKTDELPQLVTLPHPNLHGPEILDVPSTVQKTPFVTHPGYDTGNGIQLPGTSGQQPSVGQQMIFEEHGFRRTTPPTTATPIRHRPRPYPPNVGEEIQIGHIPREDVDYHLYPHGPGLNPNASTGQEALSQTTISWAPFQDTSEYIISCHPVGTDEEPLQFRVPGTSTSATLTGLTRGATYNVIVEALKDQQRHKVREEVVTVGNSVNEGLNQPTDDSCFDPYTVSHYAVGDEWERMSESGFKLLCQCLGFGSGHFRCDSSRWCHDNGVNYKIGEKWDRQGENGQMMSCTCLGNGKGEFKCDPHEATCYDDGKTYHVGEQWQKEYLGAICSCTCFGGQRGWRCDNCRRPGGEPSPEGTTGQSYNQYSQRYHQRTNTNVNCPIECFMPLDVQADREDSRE

B1: EDB-(K94R)-vc-0101 (antibody, human IgG1, kappa)
heavy: not shown
light: EIVLTQSPGTLSLSPGERATLSCRASQSVSSSFLAWYQQKPGQAPRLLIYYASSRATGIPDRFSGSGSGTDFTLTISRLEPEDFAVYYCQQTGRIPPTFGQGTKVEIKRTVAAPSVFIFPPSDEQLKSGTASVVCLLNNFYPREAKVQWKVDNALQSGNSQESVTEQDSKDSTYSLSSTLTLSKADYEKHKVYACEVTHQGLSSPVTKSFNRGEC
modifications: vc-0101 linker-payload on cysteine residues (conventional conjugation, Method A); vc-0101 linker-payload on cysteine residues (conventional conjugation, Method A); average DAR 3.7 (LC/MS)
In the case of B1, the “Avg IC50, in vitro cytotoxicity on WI38-VA13 cells (Cell Titer Glo, 4 days)” value is reported as 184 ng/ml of antibody.

B2: EDB-(κK183C-K94R-K290C)-vc-0101 (antibody, human IgG1, kappa)
heavy: not shown
light: B1 light with K184C
modifications: vc-0101 linker-payload on engineered Cys 183 (κK183C, Kabat), Method B; vc-0101 linker-payload on engineered Cys 290 (K290C, EU index), Method B; average DAR 3.8 (LC/MS)
With B2 the “Avg IC50, in vitro cytotoxicity on WI38-VA13 cells (Cell Titer Glo, 4 days)” value was 216 ng/ml of antibody.
